Test results reported in FireProtDB (doi:10.1046/j.1432-1327.1999.00918.x).

Conditions: Homo sapiens; pH 2.7; Thermal; DSC; glycine 0.05 M; reversible: yes; whole UniProt chain shown

B1: Lysozyme C wild type, P61626 (protein)
chain: MKALIVLGLVLLSVTVQGKVFERCELARTLKRLGMDGYRGISLANWMCLAKWESGYNTRATNYNAGDRSTDYGIFQINSRYWCNDGKTPGAVNACHLSCSALLQDNIADAVACAKRVVRDPQGIRAWVAWRNRCQNRDVRQYVQGCGV
- Tm: 64.9 °C
- heat capacity change of unfolding: 1.55 kcal/mol/K
- unfolding enthalpy (calorimetric): 114 kcal/mol
